Tests used:
[1] = molecular target: T1, cynomolgus monkey C5 (cynomolgus monkey); experiment: ELISA, recombinant C5 coated at 3 µg/ml, serially diluted antibody, HRP anti-IgG4 Fc detection
T1 construct: also called cyno C5; cyno monkey C5
Protocol: (§1) ELISA wells were coated with recombinant C5 protein of relevant species (3 μg/ml in coating buffer, 100 μl/well, 4° C. overnight). […] Sheep RBC lysis assay was performed as described in Example 3, using 5-20% cynomolgus monkey serum.

[2] = molecular target: T2, mouse C5 (mouse, UniProt P06684 19-1680, limits assumed); experiment: ELISA, wells coated with recombinant C5 (3 ug/ml), serially diluted antibody, detection with HRP anti-IgG4 Fc, OD450
T2 construct: also called recombinant mouse C5 protein
T2 sequence (P06684 19-1680 limits assumed): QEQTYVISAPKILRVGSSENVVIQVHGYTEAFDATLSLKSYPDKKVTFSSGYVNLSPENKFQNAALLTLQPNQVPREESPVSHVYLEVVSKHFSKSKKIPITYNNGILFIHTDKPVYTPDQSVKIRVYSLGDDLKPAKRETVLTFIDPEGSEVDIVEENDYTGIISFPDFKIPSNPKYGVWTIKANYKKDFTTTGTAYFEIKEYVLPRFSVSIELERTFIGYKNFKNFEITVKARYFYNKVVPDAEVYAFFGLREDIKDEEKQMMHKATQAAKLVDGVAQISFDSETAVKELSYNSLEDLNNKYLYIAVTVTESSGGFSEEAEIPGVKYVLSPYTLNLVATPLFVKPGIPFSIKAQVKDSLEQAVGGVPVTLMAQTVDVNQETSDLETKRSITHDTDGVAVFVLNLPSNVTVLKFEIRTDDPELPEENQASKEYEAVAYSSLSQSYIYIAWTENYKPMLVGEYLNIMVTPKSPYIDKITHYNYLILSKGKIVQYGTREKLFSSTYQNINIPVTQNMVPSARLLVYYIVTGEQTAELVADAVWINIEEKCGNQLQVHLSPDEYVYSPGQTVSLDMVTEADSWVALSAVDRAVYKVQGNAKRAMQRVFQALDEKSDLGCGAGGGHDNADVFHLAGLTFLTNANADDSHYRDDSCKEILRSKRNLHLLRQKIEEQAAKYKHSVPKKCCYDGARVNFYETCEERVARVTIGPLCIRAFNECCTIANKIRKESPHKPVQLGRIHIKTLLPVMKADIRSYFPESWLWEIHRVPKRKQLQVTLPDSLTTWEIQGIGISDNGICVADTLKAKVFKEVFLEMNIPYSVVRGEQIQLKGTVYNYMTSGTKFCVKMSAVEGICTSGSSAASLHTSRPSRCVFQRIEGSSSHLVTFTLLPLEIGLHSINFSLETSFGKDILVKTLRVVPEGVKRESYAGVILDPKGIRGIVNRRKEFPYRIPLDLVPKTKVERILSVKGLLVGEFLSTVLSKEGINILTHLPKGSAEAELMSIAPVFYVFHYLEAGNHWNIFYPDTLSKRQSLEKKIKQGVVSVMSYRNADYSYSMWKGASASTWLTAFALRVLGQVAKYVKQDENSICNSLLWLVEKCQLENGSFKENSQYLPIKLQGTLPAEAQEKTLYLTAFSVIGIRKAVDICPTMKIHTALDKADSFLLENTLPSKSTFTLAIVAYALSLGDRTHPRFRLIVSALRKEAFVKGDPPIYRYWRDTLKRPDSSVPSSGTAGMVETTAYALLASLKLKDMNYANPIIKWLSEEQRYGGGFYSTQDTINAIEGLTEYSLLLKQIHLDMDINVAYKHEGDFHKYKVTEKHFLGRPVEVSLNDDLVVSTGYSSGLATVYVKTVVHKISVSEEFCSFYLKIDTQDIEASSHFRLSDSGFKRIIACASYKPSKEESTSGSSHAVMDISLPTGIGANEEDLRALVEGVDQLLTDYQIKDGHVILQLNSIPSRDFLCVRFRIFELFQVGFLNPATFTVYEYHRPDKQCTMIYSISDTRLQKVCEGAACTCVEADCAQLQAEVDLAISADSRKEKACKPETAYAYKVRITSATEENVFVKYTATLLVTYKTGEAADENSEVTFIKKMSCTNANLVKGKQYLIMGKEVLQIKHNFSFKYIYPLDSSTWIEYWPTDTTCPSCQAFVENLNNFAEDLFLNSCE
Protocol: as §1

[3] = molecular target: T3, rat C5 (rat, UniProt P08650 19-1681, limits assumed); experiment: as above
T3 construct: also called recombinant rat C5 protein
T3 sequence (P08650 19-1681 limits assumed): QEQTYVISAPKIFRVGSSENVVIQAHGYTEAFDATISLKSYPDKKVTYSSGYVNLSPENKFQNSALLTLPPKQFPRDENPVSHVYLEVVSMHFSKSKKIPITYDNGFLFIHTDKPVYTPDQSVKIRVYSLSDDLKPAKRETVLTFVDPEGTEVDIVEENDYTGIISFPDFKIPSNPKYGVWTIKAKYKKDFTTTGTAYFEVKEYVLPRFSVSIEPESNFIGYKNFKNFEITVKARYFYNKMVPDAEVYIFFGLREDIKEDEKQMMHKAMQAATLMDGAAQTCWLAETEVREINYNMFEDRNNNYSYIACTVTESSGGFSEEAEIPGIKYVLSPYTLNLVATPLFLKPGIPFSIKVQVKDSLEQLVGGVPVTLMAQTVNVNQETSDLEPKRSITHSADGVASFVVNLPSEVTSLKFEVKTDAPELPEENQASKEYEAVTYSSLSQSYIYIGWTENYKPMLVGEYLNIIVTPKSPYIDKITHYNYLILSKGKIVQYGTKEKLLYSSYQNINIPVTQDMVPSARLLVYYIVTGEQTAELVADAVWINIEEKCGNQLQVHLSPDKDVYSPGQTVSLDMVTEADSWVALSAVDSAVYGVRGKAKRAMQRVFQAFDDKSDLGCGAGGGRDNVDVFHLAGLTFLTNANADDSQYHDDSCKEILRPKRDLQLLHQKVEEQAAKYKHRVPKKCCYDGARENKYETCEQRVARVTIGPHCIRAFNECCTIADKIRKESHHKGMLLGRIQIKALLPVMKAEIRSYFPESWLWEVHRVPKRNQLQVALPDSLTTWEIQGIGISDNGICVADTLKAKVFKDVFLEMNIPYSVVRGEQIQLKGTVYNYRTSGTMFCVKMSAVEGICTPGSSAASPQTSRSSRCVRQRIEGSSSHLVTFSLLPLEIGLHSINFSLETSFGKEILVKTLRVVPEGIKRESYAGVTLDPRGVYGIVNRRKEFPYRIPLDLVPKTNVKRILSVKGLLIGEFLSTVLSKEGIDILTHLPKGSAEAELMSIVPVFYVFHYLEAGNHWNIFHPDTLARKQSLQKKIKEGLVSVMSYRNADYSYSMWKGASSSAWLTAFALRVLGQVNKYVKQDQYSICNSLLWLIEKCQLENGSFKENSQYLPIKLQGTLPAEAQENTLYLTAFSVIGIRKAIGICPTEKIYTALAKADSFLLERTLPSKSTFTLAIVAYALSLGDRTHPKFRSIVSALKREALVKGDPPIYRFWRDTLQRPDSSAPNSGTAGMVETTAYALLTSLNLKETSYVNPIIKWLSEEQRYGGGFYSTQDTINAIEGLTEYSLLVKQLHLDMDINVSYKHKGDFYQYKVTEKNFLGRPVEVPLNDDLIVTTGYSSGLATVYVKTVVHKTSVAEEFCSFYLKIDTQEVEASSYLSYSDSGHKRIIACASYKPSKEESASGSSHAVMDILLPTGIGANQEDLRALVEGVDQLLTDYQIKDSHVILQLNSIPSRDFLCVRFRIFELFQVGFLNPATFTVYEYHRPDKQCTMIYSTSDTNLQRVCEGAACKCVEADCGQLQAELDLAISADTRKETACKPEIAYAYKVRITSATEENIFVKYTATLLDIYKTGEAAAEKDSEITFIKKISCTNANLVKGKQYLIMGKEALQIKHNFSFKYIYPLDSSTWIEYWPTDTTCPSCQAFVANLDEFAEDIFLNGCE
Protocol: as §1

[4] = molecular target: T4, rabbit C5 (rabbit, UniProt G1SPF9 19-673; G1SPF9 678-1675); experiment: as above
T4 construct: also called recombinant rabbit C5 protein
T4 sequence (beta, as listed by the source limits assumed, chain 1 of 2): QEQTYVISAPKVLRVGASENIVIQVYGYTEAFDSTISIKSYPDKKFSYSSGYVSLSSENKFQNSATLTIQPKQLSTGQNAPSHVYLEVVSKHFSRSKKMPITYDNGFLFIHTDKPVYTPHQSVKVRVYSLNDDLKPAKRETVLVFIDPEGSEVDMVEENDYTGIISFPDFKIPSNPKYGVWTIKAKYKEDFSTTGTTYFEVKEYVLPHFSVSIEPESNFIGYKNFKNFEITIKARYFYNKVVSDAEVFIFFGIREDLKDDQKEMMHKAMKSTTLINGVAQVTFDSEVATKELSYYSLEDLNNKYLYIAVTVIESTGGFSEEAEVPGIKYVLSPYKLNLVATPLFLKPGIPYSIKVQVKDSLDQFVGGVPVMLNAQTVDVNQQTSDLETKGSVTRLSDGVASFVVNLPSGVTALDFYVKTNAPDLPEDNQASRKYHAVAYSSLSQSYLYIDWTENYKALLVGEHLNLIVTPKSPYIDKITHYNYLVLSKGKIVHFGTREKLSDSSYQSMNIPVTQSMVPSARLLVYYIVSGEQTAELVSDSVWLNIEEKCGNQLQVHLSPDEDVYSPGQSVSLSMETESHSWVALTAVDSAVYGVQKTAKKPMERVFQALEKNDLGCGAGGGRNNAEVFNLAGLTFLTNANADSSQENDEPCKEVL
T4 sequence (alpha, as listed by the source limits assumed, chain 2 of 2): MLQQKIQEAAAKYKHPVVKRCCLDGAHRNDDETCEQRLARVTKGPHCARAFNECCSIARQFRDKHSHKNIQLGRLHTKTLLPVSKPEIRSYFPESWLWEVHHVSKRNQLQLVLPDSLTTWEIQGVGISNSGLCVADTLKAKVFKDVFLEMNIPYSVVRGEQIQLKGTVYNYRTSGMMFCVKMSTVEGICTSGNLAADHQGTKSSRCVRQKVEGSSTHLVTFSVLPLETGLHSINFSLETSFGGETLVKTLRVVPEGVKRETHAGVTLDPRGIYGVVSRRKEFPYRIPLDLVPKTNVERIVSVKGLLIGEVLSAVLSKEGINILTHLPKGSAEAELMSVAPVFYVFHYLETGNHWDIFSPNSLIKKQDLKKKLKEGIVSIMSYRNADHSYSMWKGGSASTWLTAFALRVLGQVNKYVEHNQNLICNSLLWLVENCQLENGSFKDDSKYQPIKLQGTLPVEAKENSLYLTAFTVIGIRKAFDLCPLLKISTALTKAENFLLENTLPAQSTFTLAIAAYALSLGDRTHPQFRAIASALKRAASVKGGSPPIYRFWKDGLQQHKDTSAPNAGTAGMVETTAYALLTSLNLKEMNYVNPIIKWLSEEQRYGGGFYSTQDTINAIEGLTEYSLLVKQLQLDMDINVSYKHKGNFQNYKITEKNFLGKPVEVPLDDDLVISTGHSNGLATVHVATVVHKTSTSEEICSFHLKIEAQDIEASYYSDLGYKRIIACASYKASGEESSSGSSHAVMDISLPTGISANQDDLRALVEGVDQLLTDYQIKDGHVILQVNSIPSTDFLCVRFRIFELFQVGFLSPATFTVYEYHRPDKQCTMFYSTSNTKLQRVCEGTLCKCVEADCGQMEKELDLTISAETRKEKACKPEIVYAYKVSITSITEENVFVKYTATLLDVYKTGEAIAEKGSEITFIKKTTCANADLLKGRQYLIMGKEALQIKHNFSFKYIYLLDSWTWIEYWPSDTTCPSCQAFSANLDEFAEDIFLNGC
Protocol: as §1

EC50 [1]: ~0.2 µg/mL | binding result [2]: no binding | binding result [3]: no binding | binding result [4]: no binding
B1: Y32H/Q38R/L54H anti-C5 mAb (antibody, human IgG4 S228P, V domains shown)
VH: QVQLVQSGAEVKKPGASVKVSCKASGYIFSNHWIQWVRQAPGQGLEWMGEILPGSGSTEYTENFKDRVTMTRDTSTSTVYMELSSLRSEDTAVYYCARYFFGSSPNWYFDVWGQGTLVTVSS
VL: DIQMTQSPSSLSASVGDRVTITCGASENIYGALNWYQRKPGKAPKLLIYGATNHADGVPSRFSGSGSGTDFTLTISSLQPEDFATYYCQNVLNTPLTFGQGTKVEIK
